In assay [1] the target is NprR(ΔHTH)(Y223A/F225A) (Bacillus thuringiensis (strain 407)). Nature of the assay: crystal structure; NprR(ΔHTH)(Y223A/F225A) alone, crystallized at 18°C in 1.0 M Na citrate, 0.1 M Hepes pH 7.6; 3.25 Å, space group P 21 21 21, 2 molecules per asymmetric unit.
Assay [2] concerns the target NprR from B. thuringiensis strain 407 (NprR-6His) (Bacillus thuringiensis (strain 407)). In words: MST; 33 nM NprR labelled with NT-495-NHS; Bt Spo0F serially diluted from about 260 μM to 8 nM; 5% glycerol in MST buffer (50 mM Tris-HCl pH 7.4, 150 mM NaCl, 10 mM MgCl2, 0.05% Tween-20); 20% LED power, 40% IR-laser power; absence of NprX; apparent Kd.

The values that follow come from article PMC4970707.

What is called stoichiometry N is a count of units in the complex or per binding partner.

In assay [1], “NprR(ΔHTH)(Y223A/F225A) (domain or fragment)” showed a stoichiometry N of 2.

B1: Spo0F from B. thuringiensis (6His-Spo0F) (natural protein)
chain: MEGKILIVDDQYGIRVLLHEVFQKEGYQTFQAANGFQALDIVKKDNPDLVVLDMKIPGMDGIEIFKACKEIDESIKVILMSAYGELDMIQEAKDLGALMHFAKPFDIDEIRQAVRNELAVEA
Turning to B1, the Kd in assay [2] was found to be 5 µM.
